Experimental data taken from a protein production outcome set (Wang et al. 2014).

Assay: label from the status in PepcDB records

| Sequence | protein production |
| --- | --- |
| MAFVRYIPCRKIPRNVDQFELPCLGSLRAFFSTQKLIGDEPVLVRDFIHTALYDPIQGYFSQRSKSVGVLERSIKFNQLEGRKAYMKLLEKVYKQSDISWFTPVELFKPWYAHGIAEAILRTTNLSVPLKGVLDYIMLNAPERIYKNMSYTSIEISPSLAKIQKETVAQVGSHLSKFRVECRDASDLAGWSKVLFVQHKADSGFQFPVAMLEFENVEQQPCWVIMLEVLDNLPHDLVYSKSQLSPWMEVLVENKPESEALSELYKPLEDPLIKRCIEIVEHEDDPKLLEVLHAKLPKMSLIASDFSFLPDVKVPGERAPLVSTKKDGCSSDYSSYLDAKGDADIFFPTDFWLLERMDHYCSGWRKMEKDGTPSKKGRKRRTLTVNQDSL | failed |
| MDQSTLRHRITDQFSYRGERADIWRAFDLLFDTDEFLNLGYSEWYQPHIAGSSQRRLVTEVGSRVASHLPTTDGVRLLDVGCGRGGPALHLAYQFGFNVTGVDLVPYNIQMATENARGKHLDSEFIIGDATQLPFTRDSFTACTAIDALVYLPERNRVFATVADTLEPEGVLVVSDLVMQSDVTETERRLVDSFADAWDMPSLGTVEGYKAALDETSFELKAVEDITKHSVGRFRKWTTLYLQLLTSPLRALIERLLGAYDLDPPAITEQVRKAHHALPFLRHVIFVAELETT | failed |
| MTDKFLQFPVIDPIIFSIGPVSLRWYGTMYLIGFLAAMFMANKAADRSNGLWTRDQVSDVLFYGFLGVILGGRVGYVLFYQFEYFLSDPLYLFEIWQGGMSFHGGLLGVILAVFIFARKTNKSFLAVGDFVVPLVPIGLGMGRLGNFINAELWGRQTDVSWAMVFPTDPLQVPRHPSQLYEFALEGVVLFAILYIISRKTRSLGLASGTFLIGYGVFRSIVEFFREPDAHLGLYFSFISKGQILSIPMILAGILIIYLGYLSQQKSAIAQGDKALAAGGKSGKKTVKGNN | failed |
| MSTKELLFSFHGRIDRKTYWIWNVIYYISIIGFGAGISKLFPAFSYLLLPIFLLVLLIPDLAITTKRWHDRDKSIYWLGLNIPLVIGRIATPMTSPMAQEPSTPQLFIASISLICGLWILIECGFLKGTSGPNKYGPEPQ | not failed |
| TSTDAAGGDSYRVGINQLVQHPALDAATTGFKEAFEEAGVDVTFDEQNANGEQGTALTISQQFASDNLDLVLAVATPAAQATAQNITDIPVLFTAVTDAVSAELVDSNEAPGGNVTGTSDIAPIEQQLELLQQLVPDAKSIGIVYASGEVNSQVQVDEVTKAAEPLGLSVNTQTVTTVNEIQQAVEALGDVDVIYVPTDNMVVSGISSLVQVAEQKQIPVIGAESGTVEGGALATLGIDYTELGRQTGEMALRILQDGEDPATMPVETATEFTYVINEDAAERQGVEIPQEILDKAERV | failed |
| MKRKWIDALWVMGVLLMAGFCLSACNRELDVQTVFPFEVSTMPVPKQIKQGETVEVRCSLVSEGDFSGTCYTMRFFQTEGKGVLRIGRGVALKPNDCYPVGKGDFRLYYTSQSKERQSLEIVFEDNHGQSQTIVLDFNHKESDEDKEREAGYRT | failed |
| MRRGSGNPERPSLSRDGLRVPPPCPGKRGPGHFSGYHGGMEGIRRAAQRAAEEFLQAFPMAPGSLFVLGGSTSEVLGERVGTRPSLEAAHAVLEGLLPPLLERGVHVAVQACEHLNRALVVERETARAFGLEEVAVFPHPKAGGALATAAFLRFRDPVMVESLKAQAHGGMDIGGVLIGMHLRPVAVPLRLSVRKIGEAVLLAAKTRPKLVGGARAVYTREEMLKKLEEFLPKPP | not failed |
| MKPEISIIVPIYNVEKYLSKCIDSILNQSFTNFELILVNDGSNDRSGIICDEYTLKDERIRVIHKKNGGVSSARNSGISLALGKYIGFVDPDDYIKEEMYEILYNLCKKYKTDISICKLGREINGTLINNEENGEIIELDNVNGLKELFKGILYRFSLCNKLFKRECFRGVIFPEGRIHEDLSTTYRLFANAKKSIYFDYVGYIYVKRENSILTTTYNEKRLQAFIGWNEILEFMINKYPMLEDNVVACFGYSCIDHSNYILNQVIGFNNKIRLLNFIRYEVKQRFSLLVKNKILINKLKLILILLMLNSRFLIISKYKGKGVYRKRIRI | failed |
| MKQSLQIWLEAARPKTLPLALVSILTGSVLAYSAGHFSLTIAIMAFATATLLQILSNLANDYGDAVKGTDNENRLGPQRAMQTGAVSAKQMKQAIIFNIVLTAISGLVLVFYALSSPESIITFIGLGILAIIAAIAYTMGSKPYGYVGLGDISVFLFFGLLGVSGTYFLHTGHVDTTLFLPALGCGLLAVAVLNINNMRDIENDRECGKRTVAVRLGQHKAKQYHFILLGGAILAFAAYLLIQDKPLWISLPFLLSVYVVIHHGKAVWDTEKPAQIAPMLPVIVKCSLVTNVLFATIVVAQTLVS | failed |
| MNVVRYTPWPGQAALQNEIKQVFDRFFEHNGDTDESAVVTAQWVPRVDIKEEPNQFVLYADLPGIDPADIEVQMDKGILSIKGERKTESSSQTEHFSRIERRYGSFHRRFALPDSADADGITASGSHGVLRILIPKQAATTPRRIQVGNAVSSDVALQSMLEHHHHHH | not failed |
| MSFKVISTGPQAIFQDRGRFGFASAGVGTSGSFDRLSAARANHALGNDPNATVVEILLGGFEVEALHTTSIVFTGTEAEVMVRTAGGQSKNATTNTIIDVAAGERIRVEPATYGMRAYFAARGGFAVEKTLGSASTDLISHMGPRPIEPGDVIDVATDIADSQWWPKLRQLPTLWKRMPTETLTVIRGPRDKWFTQESLNNFFTQVFTVSNDSNRIGLRMHSSEPIQHRVEGELKSEGMVRGSIQIPPGGNPVVFGPDHPVTGGYPVIAVLTSRSCDRSAQLLPGDKVRFKLL | failed |
| MAIKLSSIDQFEQVIEENKYVFVLKHSETCPISANAYDQFNKFLYERDMDGYYLIVQQERDLSDYIAKKTNVKHESPQAFYFVNGEMVWNRDHGDINVSSLAQAEE | not failed |
| MKVTDVRLRKIQTDGRMKALVSITLDEAFVIHDLRVIEGNSGLFVAMPSKRTPDGEFRDIAHPINSDMRQEIQDAVMKVYDETDEVVPDKNATSEDSEEA | not failed |
| MTNTTYVQEYHAIVEVLSKYNEGGKKADSTIMRPAFSSQATIFGVDVDNKLTGGPIQGLFDVIDNVFHPSPEAKAAIARIDIVGTAASARIDTDDISGFRFTDFFNLLKVEGKWTVVSKIYHTHPSA | not failed |
| MQSVEDKTFCLQTLSANPLAASATGLLPLAEVVIRGIDLPYAKLLVKSADRAIEKIPALKEQFKECQDSFLRIVMSLKSAASELKVSPDTANYDAMICFDETKRVKEVIGKNEDVTSKSLIEMTLRMEKLIFLALGATEVVGG | failed |
| MTTTSSINERQVLKHLQAQLPDCLLLDRFHLKRRLQQVGAMLEQGKPVDKLMTELATKVQTSLQRRQLRQEQLPKPEYPAELPVSARKDEIAQAIAKHQVVIVSGETGSGKTTQLPKICLELGRGVAGLIGHTQPRRIAARSVASRIAQELKSPLGEAVGYKVRFNDRLSETTYIKLMTDGILLAETQGDRFLNAYDTIIIDEAHERSLNIDFLLGYLKQLLPRRPDLKVIVTSATIDAERFSRHFNGAPVIEVSGRTYPVEIRYRPLGSRRMVVAPPAPVAAPVPVVAQKEEAPQEDIIDIGIKRKAGNIDPSIRKWLEDDNDVEVLGQDIMGIQRKPRAEAKWLEEDDAEEAMEEAILDSVEQLSRLGGGDILVFLPGEREIRETADYLNKHLRHVEILPLFARLSIEDQQKVFRSSGGRRVVLATNVAETSLTVPGIKYVIDTGLARVNRYSARAKVEQLQVEKISQAAARQRAGRCGRVSNGICIRLYDEADFNHRPEFTDPEILRSSLAAVILRMAALKLGNVQDFPFIEAPSSRYIADGYQLLQELGAVDAEQNITDTGRQLARLPLDPRVSRMILEGKKQGCVREILIIASALAIQDPRERPMDKREAADQAHAKFNVEHSDFLGFIKLWEWYEDALKTKKSNKDLLNKCHSNFLSFLRLKEWRELYQQLREIAEELELKLNEQPASYEQVHRALLAGLLGNIGFKDGEADNYLGARGIRFHIAPGSTLKKARPKWVMAAELMETTKLYARCVARIEPDWIEPLARGLTQSHYSDPRWDRKAAQVVAWERVSLYGLTVVPRRRVHYGPINPQESREIFIREALANMEFDTRAPFFAANRKLIAEIEELEHKARRQDVLVDEHTLFAFYDAIIPAGIVNGAGFEKWRQEAERETPRLLYLTRDHLMRHGAAGVTEVQFPESLELDGVKLPLKYRFEPGHPLDGVTATVPLALLNQLNPVEAEWLVPGMIREKVTALIKALPKTLRRVCVPVPDFVTGFLETATRKDGALLPALASYIQQRTGLKLSASEWQADALDAHLYMNFRVVDEKNRELGSGRDWHALKAQLGQAAQLTFRSNSPGIEKAGLKQWDFGDLPPTLSFSRDGRQLTGYPALEDNGDSVAIKLFDTELAARQSHRAGVRRLMRFELKEQMKQLEKGLPGFNQYALQLRSIMSPEELREDMLVAISDRAFIGEDELPRNSQDFMALKARARTRLPAVVEGAGRLATAIATEYTQLTQKLNAAPASLSRVKKELEGQLARLLPKRFFSATPWDTLQHLPRYIKAMRLRLEKYPGAIERDTRSGQAVQQIWERWESHVQGLRKANQEVPPAVLDYRWLIEELRVSLFAQELKTPFPVSVKRLDKAWEDMVRA | failed |
| MHLSLALLVLLFSLILSNVINRIFPRLPLPLIQIIFGVGIGFLLKGEVFELETELFLAFIIAPLLFREGEESDITSILRNWKLILFLIFPVIFVSTLGIGYLAKAVLPASVPLSACLALGAALGPTDFVAYSAISKRFSFPKWISYILQGEGLLNDASGLVAFRVAVTALTTGSFSLLDASWNLVISVIGGFLVGLITALLNRLFLTILDNMDAADVTGALLLELVLPIPSYFVAEEIHVSGIIAVVVAGISLASRFKKITVFDAKLDSVSHTIWGTITFVLNGMVFFLLGTELPTLATPVLSSSTYDTLWMLLAIVLLTAIMFGIRFVMISAVFAQRAWRTKRSLKKIWKVATILTFSGVKGTVSIATILLLPVANMTALEHSLLTFTVAGVTLLSFLIGILILPRLATGPAHTTNHYMQIAILNDVVRELEKDLKQSANQGAVYATIDNYNQRLEDLILEQESNDVKEELANIRIMIMEIESEGLEYAYKKGKISELEYNLYQRYIKGLERRINRGFVSSLSYASAVFVLGLRRILHLAFTFKFRFEQEENRRGPQLTEENRDHMTELYLTNTEQVLEALSNLEGVYHSDLLSYLKRSRIREAEIIQSGAFVERVITHLNPDYVDEMLRGYFLERKIIIEYEQAGRISSRYAKQLRKEVNTLENYSLKETSNTLIYDMINLARRGA | failed |
| MFHYTVDVSTGMNETIERLEESLKQEGFGVLWQFSVTEKLQEKGLDFSTPMVILEVCNPQEAARVLNENLLVGYFLPCKLVVYQENGTTKIGMPKPTMLVGMMNDPALKEIAADIEKRLAACLDRCR | not failed |
| MKWLKHFQSLHTKLVIVYVLLIIIGMQIIGLYFTNSLEKELTQTFKNNISQYAKQIEINIEKVYDEDNAINAQKEVQNLLNEYANRQEIEEIRFIDKDQIIMATSKQSTRSLINQKANDNSIQKALSLGEINSHTVLKDYGNGKQRVWVYNLPVKTSNDGTIGDVYIEADINDVYNQLSNINQIFIVGTGISLLITVILGFFIARTITKPITDMRNQTVEMSKGNYTQRVKIYGNDEIGELALAFNNLSKRVQEAQANTESEKRRLDSVITHMSDGIIATDRRGRVRIVNDMALTMMGTMKEDIIGDHMLKVLKLEEDFSLDEIQENNDSFLLDINENEGIIARVNFSTIVQETGFVTGYIAVLHDVTEQQQVERERREFVANVSHELRTPLTSMNSYIEALESGAWKDGELAPQFLSVTREETERMIRLVNDLLQLSKMDNESEQITKEIVDFNMFINKIINRHEMSAKDTTFVREVPTETIFTEIDPDKMTQVFDNVITNAMKYSRGDKRVEFHVKQNALYNRMTIRVKDNGIGIPINKVDKIFDRFYRVDKARTRKMGGTGLGLAISKEIVEAHNGRIWANSVEGQGTSIFITLPCEVLEDGDWDAE | failed |
| MNHTADNCIFCKIIDGQILCSKVYEDEHVLAFLDISQVTKGHTLVIPKVHKQDIFALTPEIASHIFSVVPKIANAIKAEFNPVGFNLLNNNGEKAGQTVFHFHLHLIPRYGENDGFGAVWKSHQNEYTMENLQNIASTIANSVK | not failed |
